Ten variants from IntAct's records for PubMed 19103591 can be followed below.

The labels stand for the following.
B1: Anti-sigma-E factor RseA (Escherichia coli (strain K12)), P0AFX7 (parent)
chain: MQKEQLSALMDGETLDSELLNELAHNPEMQKTWESYHLIRDSMRGDTPEVLHFDISSRVMAAIEEEPVRQPATLIPEAQPAPHQWQKMPFWQKVRPWAAQLTQMGVAACVSLAVIVGVQHYNGQSETSQQPETPVFNTLPMMGKASPVSLGVPSEATANNGQQQQVQEQRRRINAMLQDYELQRRLHSEQLQFEQAQTQQAAVQVPGIQTLGTQSQ
partner: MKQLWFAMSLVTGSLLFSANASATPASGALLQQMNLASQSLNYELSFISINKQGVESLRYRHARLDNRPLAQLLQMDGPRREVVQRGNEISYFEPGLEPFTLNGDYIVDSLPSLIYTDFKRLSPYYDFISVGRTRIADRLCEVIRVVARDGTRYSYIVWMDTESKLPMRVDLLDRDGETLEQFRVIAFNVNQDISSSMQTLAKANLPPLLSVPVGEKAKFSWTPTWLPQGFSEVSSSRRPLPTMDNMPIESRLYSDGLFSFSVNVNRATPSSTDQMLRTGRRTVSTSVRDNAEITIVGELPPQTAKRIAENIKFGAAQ

The variants in one assay derive from B1. The settings on record: with rseb_ecoli rseB.
On to S188A, for which the “effect of a mutation on the interaction” value is “decreasing interaction”. Take Q178A: the “effect of a mutation on the interaction” value is recorded as “decreasing interaction”. On the same count and under the same terms, the entry for L182A is “decreasing interaction”; for M176A it is “decreasing interaction”.

Another assay covers variants of B1. To be noted: with rseb_ecoli rseB. The source holds these as a separate data set.
Take I173C: the “effect of a mutation on the interaction” value is recorded as “increasing interaction strength”. For L186C, the “effect of a mutation on the interaction” value is reported as “increasing interaction strength”. With D179C, the “effect of a mutation on the interaction” value is on record as “increasing interaction strength”.

The variants in the next assay derive from B1. To be noted: with rseb_ecoli rseB. The source holds these as a separate data set.
Consider I173A, for which the “effect of a mutation on the interaction” value was “decreasing interaction”. Consider E189A, for which the “effect of a mutation on the interaction” value is recorded as “decreasing interaction”.

A further assay covers variants of B1. To be noted: with rseb_ecoli rseB. The source holds these as a separate data set.
Turning to H187C, the “effect of a mutation on the interaction” value is “increasing interaction strength”.
